In the experiment the target is T1, antigen c-MET (Homo sapiens (assumed), UniProt P08581).
T1 construct: c-MET used as antigen in the ForteBio Octet experiment; the construct of the antigen is unknown; also called mesenchymal-epithelial transition protein
The experiment in a line: BLI; ForteBio Octet; who was immobilised and the conditions not given; KD from ForteBio Data Analysis Software 8.0; values compared 'if normalized to the same number of epitope of c-MET'.

The text below walks through data of PMC9569552 (International Journal of Molecular Sciences, 2022).

Broadly, the Kd is a measure of binding affinity in units of concentration. Low readings indicate tighter binding, high ones weaker binding.

T1 sequence (P08581 25-1390): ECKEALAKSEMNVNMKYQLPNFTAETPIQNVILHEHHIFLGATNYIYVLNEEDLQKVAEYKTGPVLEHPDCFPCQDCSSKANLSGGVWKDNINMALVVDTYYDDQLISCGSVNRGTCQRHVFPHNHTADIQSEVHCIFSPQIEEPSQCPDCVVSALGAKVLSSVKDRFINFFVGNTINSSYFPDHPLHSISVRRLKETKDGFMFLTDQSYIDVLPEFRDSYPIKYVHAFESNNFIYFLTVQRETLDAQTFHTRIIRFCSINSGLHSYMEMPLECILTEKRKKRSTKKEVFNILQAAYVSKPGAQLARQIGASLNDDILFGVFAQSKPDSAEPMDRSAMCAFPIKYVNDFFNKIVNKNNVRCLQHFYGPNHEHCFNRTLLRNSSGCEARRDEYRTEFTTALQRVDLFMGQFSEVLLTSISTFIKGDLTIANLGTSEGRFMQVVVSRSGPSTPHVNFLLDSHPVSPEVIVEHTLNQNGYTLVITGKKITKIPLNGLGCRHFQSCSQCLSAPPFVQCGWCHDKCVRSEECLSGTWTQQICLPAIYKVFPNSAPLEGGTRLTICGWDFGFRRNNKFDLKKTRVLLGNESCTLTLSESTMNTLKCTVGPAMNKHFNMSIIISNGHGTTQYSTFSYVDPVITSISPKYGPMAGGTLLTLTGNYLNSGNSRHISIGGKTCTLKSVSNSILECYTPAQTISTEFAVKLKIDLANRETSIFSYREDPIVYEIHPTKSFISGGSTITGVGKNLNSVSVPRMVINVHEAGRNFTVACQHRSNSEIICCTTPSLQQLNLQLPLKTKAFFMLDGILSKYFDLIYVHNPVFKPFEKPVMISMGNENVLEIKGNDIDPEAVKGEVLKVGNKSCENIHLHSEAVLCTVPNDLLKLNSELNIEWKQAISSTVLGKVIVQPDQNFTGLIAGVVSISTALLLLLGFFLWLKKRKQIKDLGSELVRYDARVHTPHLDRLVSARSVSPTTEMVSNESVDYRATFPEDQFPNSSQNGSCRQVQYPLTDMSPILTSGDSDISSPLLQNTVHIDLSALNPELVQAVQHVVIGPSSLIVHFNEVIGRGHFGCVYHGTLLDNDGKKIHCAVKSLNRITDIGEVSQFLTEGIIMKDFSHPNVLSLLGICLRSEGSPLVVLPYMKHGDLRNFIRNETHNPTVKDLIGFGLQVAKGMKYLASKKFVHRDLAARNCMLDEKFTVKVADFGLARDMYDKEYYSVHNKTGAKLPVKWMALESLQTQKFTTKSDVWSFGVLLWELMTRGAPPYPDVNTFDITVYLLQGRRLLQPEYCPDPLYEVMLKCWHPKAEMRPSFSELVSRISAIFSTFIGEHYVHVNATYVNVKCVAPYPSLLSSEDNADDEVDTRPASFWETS

B1: Emibetuzumab-IgG4 (Emi-IgG4) antibody (antibody, V domains shown)
VH: QVQLVQSGAEVKKPGASVKVSCKASGYTFTDYYMHWVRQAPGQGLEWMGRVNPNRRGTTYNQKFEGRVTMTTDTSTSTAYMELRSLRSDDTAVYYCARANWLDYWGQGTTVTVSS
VL: DIQMTQSPSSLSASVGDRVTITCSVSSSVSSIYLHWYQQKPGKAPKLLIYSTSNLASGVPSRFSGSGSGTDFTLTISSLQPEDFATYYCQVYSGYPLTFGGGTKVEIK
notes: heavy chain of emibetuzumab, IgG4; disclosed in WO 2010/059654; kappa light chain of emibetuzumab; IgG4; also called emibetuzumab analog; source: 293F cells, transiently co-transfected, purified from the supernatant (Protein A); copies: 2 + 2
B1: the Kd is 0.65 nM.
